The results in this text go back to patent publication US20070178531A1 (BIOCHECK, published 2007).

The target of experiment [1] is T1, Human Id3: Histidine (human, UniProt Q02535 1-119 at identity 1.00)).
T1 construct: Fusion protein made in E. coli from vector pGW07; also called h-Id3: His; Human Id3 (coated wells); not shown: His tag
T1 chain: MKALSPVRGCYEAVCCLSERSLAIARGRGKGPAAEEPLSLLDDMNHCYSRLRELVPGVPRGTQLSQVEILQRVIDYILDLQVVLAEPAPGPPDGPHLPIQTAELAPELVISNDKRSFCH
Kind of experiment: ELISA, Ab 0.050 µg/ml. Here is the method: (§1) The rabbit monoclonal anti-human Id3 (clone #3-3) and the rabbit monoclonal anti-mouse/human Id3 (clones #6-1, 16-1, 17-3, and 42-1) produced in Example 6 were tested reactivity against the following antigens: mouse Id1:His, human Id1:His, mouse Id2:His, human Id2:His, mouse Id3:His, human Id3:His, mouse Id4:His, human Id4:His and GST.
(§2) 1. Microtiter wells (prepared in accordance with Example 6) were coated (0.1 μg/well) with mouse Id1:His, human Id1:His, human Id2:His, human Id3:His, and 1.0 μg/well with GST. [0155] 2. Antibody Diluent: 0.25% (w/v) BSA in 0.015M KPO₄ Buffer, 0.85% (w/v) NaCl, 0.1% (w/v) NaN₃, pH=7.40 [0156] 3. Rabbit monoclonal anti-human Id3 (clone #3-3) prepared in Example 7 was diluted to […] with the antibody diluent. […] 4. Rabbit monoclonal anti-mouse/human Id3 (clones #6-1, 16-1, 17-3, 42-1) prepared in Example 7 was diluted to 0.005, 0.010, 0.025, 0.05, 0.10, 0.25, and 0.50 μg/ml with the antibody diluent. […] 5. Conjugate Diluent: 50% (v/v) which consists of an aqueous solution containing Fetal Bovine Serum in 0.05 M Tris, 1% (v/v) Proclin-300, pH 7.6. [0159] 6. Conjugate: Goat anti-rabbit IgG (H+L)-HRP conjugate. [0160] 7. TMB reagent. […] 8. Stop solution (1 N HCI). Method
(§3) 1. Dispense 100 μL of antibody diluent, diluted rabbit monoclonal human Id3, and mouse/human Id3 hybridoma supernatants into appropriate wells. […] 2. Incubate at room temperature with mechanical shaking at 750 rpm for 90 minutes. [0165] 3. Remove the incubation mixture by flicking plate content into an appropriate waste container followed by rinsing the wells 5 times with distilled water. [0166] 4. Strike the wells sharply onto absorbent paper or paper towels to remove all residual water droplets. [0167] 5. Dispense 100 μL of 1:50,000 Goat Anti-Rabbit IgG-HRP Conjugate Reagent into each well. Gently mix for 5 seconds. [0168] 6. Incubate at room temperature with mechanical shaking at 750 rpm for 90 minutes. [0169] 7. Repeat procedures 3 and 4. [0170] 8. Dispense 100 μL of TMB Reagent into each well. Gently mix for 5 seconds. [0171] 9. Incubate at room temperature with mechanical shaking at 750 rpm for 20 minutes. […] 10.
In general terms: An ELISA detects its analyte on a solid surface through an enzyme-linked reagent.

Experiment [2] concerns the target T2, Human Id1: Histidine (human, UniProt P41134 1-155, limits assumed).
T2 construct: Fusion protein made in E. coli from vector pGW07; also called h-Id1: his; not shown: His tag
T2 sequence (looked up): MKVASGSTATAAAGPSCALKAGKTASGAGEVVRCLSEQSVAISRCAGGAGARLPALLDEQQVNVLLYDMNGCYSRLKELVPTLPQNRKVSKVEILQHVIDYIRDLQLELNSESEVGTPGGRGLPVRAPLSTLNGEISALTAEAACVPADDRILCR
The experiment in a line: ELISA, Ab 0.050 µg/ml. Here is the method:
as §1, §2, §3

Experiment [3] deals with T3, Human Id2: Histidine (human, UniProt Q02363 1-134, limits assumed).
T3 construct: Fusion protein made in E. coli from vector pGW07; also called h-Id2: His; not shown: His tag
T3 sequence (looked up): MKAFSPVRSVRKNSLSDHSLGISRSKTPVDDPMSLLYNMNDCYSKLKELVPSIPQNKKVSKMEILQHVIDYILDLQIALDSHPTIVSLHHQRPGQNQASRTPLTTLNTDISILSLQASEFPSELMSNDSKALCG
The experiment in a line: ELISA, Ab 0.050 µg/ml. Here is the method:
as §1, §2, §3

The target of experiment [4] is T4, Mouse Id1: Histidine (mouse, UniProt P20067-2 1-148, limits assumed).
T4 construct: Fusion protein made in E. coli from vector pGW07; also called m-Id1-His; not shown: His tag
T4 sequence (looked up): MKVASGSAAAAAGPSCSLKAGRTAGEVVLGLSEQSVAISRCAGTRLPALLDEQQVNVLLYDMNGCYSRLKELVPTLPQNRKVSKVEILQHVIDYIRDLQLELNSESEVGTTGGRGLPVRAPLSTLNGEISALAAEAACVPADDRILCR
Kind of experiment: ELISA, Ab 0.050 µg/ml. The protocol:
as §1, §2, §3

Experiment [5] concerns the target T5, Mouse Id2: Histidine (mouse, UniProt P41136 1-134, limits assumed).
T5 construct: Fusion protein made in E. coli from vector pGW07; also called m-Id2: His; not shown: His tag
T5 sequence (looked up): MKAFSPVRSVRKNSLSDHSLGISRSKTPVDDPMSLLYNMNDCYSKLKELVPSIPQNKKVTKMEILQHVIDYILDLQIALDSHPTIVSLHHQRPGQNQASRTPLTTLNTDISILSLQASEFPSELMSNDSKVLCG
Kind of experiment: ELISA, Ab 0.050 µg/ml. The protocol:
as §1, §2, §3

Experiment [6] concerns the target T6, Mouse Id3: Histidine (mouse, UniProt P41133 1-119).
T6 construct: Fusion protein made in E. coli from vector pGW07; also called m-Id3: His; Mouse Id3 (coated wells); not shown: His tag
T6 sequence: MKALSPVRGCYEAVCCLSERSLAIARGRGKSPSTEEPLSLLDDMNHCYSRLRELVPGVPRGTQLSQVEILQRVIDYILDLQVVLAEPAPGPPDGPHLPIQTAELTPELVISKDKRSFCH
Kind of experiment: ELISA, Ab 0.050 µg/ml. Here is the method:
as §1, §2, §3

Experiment [7] deals with T1, Human Id3: Histidine. The experiment in a line: ELISA, Ab 0.500 µg/ml. The protocol:
as §1, §2, §3

The target in experiment [8] is T2, Human Id1: Histidine. The experiment in a line: ELISA, Ab 0.500 µg/ml. Here is the method: as §1, §2, §3
The target of experiment [9] is T3, Human Id2: Histidine. Kind of experiment: ELISA, Ab 0.500 µg/ml. The protocol:
as §1, §2, §3

Experiment [10] addresses T4, Mouse Id1: Histidine. Kind of experiment: ELISA, Ab 0.500 µg/ml. Here is the method:
as §1, §2, §3

Experiment [11] has as its target T5, Mouse Id2: Histidine. Kind of experiment: ELISA, Ab 0.100 µg/ml.

B1: rabbit monoclonal anti-mouse/human Id3, clone #BCH-4/#16-1 (antibody, V domains shown)
VH: QSVEESGGRLVTPGTPLTLTCTASGFSLSSYYIHWVRQAPGKALEWIGYISDGGTTYYASWAKGRFTISKTSSTTVDLKMTSLTTEDTATYFCARQGFNIWGPGTLVTVSL
VL: AVLTQTPSPVSAAVGGTVTISCQSSQSVYNNNWLSWFQQKSGQPPKLLIYETSKLESGVPSRFKGSGSGTQFTLTIIDVQCDDAATYYCLGGYWTTSDNNIFGGGTEVVVK
notes: Rabbit IgG from a rabbit hybridoma; also called m/h Id3 MoAb 16-1
B1: the A450 in [1] came to 1.4 A450; in experiment [2], 0.047 A450; in [3], 0.044 A450; in [4], 0.044 A450; in [5], 0.051 A450; in experiment [6], 1.57 A450. The A450 was determined as 3.37 A450 in experiment [7]; 0.051 A450 in experiment [8]; 0.058 A450 in [9]; 0.047 A450 in experiment [10]; 0.055 A450 in experiment [11].

B2: rabbit monoclonal anti-mouse/human Id3, clone #BCH-4/#6-1 (antibody, V domains shown)
VH: QSVEESGGRLVTPGTPLTLTCTASGFSLSNVYIHWVRQAPGKGLEWIGYISDGDTARYATWAKGRFTISKTSSTTVNLKMTSLTTEDTATYFCARQGFNIWGPGTLVTVSL
VL: AVLTQTPSPVSAAVGGTVSISCQSSQSVWNNNWLSWFQQKPGQPPKLLIYETSKLESGVPSRFKGSGSGTQFTLTISDVQCDDAATYYCLGGYWTTSDNNVFGGGTEVVVK
notes: Rabbit IgG from a rabbit hybridoma; also called m/h Id3 MoAb 6-1
For the molecule B2, the A450 in experiment [1] came out at 1.61 A450; in [2] it was 0.052 A450; in [3], 0.046 A450; in [4] it was 0.046 A450; in [5] it was 0.051 A450; in experiment [6] it was 1.75 A450. For the same molecule, the A450 in [7] was found to be 3.56 A450; in experiment [8] it was 0.048 A450; in [9], 0.063 A450; in [10] it was 0.051 A450; in experiment [11], 0.055 A450.

B3: rabbit monoclonal anti-mouse/human Id3, clone #BCH-4/#17-3 (antibody, V domains shown)
VH: QSVEESGGRLVTPGTPLTLTCTASGFSLSNVYIHWVRQAPGKGLEWIGYISDGDTARYATWAKGRFTISKTSSTTVNLKMTSLTTEDTATYFCARQGFNIWGPGTLVTVSL
VL: AVLTQTPSPVSAAVGGTVSISCQSSQSVWNNNWLSWFQQKPGQPPKLLIYETSKLESGVPSRFKGSGSGTQFTLTISDVQCDDAATYYCLGGYWTTSDNNVFGGGTEVVVK
notes: Rabbit IgG from a rabbit hybridoma; also called m/h Id3 MoAb 17-3; BCH-3/#17-3
Regarding B3, the A450 in experiment [1] was 1.8 A450; in experiment [2], 0.044 A450; in experiment [3], 0.049 A450; in experiment [4], 0.048 A450; in [5], 0.054 A450; in experiment [6] it was 2.19 A450. Also, the A450 in [7] is 3.69 A450; in experiment [8], 0.049 A450; in [9], 0.053 A450; in [10], 0.06 A450; in experiment [11], 0.057 A450.

B4: rabbit monoclonal anti-mouse/human Id3, clone #BCH-4/#42-1 (antibody, V domains shown)
VH: QSVEESGGRLVTPGTPLTLTCTASGFSLSSYYIHWVRQAPGKALEWIGYISDGGTTYYASWAKGRFTISKTSSTTVDLKMTSLTTEDTATYFCARQGFNIWGPGTLVTVSL
VL: AVLTQTPSPVSAAVGGTVTISCQSSQSVYNNNWLSWFQQKSGQPPKLLIYETSKLESGVPSRFKGSGSGTQFTLTIIDVQCDDAATYYCLGGYWSTSDNNIFGGGTEVVVK
notes: Rabbit IgG from a rabbit hybridoma; also called m/h Id3 MoAb 42-1
Regarding B4, the A450 was determined as 2 A450 in [1]; 0.045 A450 in experiment [2]; 0.047 A450 in [3]; 0.05 A450 in [4]; 0.051 A450 in experiment [5]; 2.23 A450 in experiment [6]. Further, the A450 in experiment [7] was 3.75 A450; in experiment [8] it was 0.047 A450; in experiment [9] it was 0.057 A450; in experiment [10], 0.053 A450; in experiment [11], 0.058 A450.

B5: rabbit monoclonal anti-human Id3, clone #BCH-4/#3-3 (antibody, V domains shown)
VH: QSVEESGGRLVTPGTPLTLTCTVSGIDLSSYAMSWVRQAPGKGLEWIGVIFPSNNVYYASWAKGRFTISKTSTTVDLKITSPTTEDTATYFCASMGAFDSWGPGTLVTVSS
VL: QVLTQTPSPVSAAVGGTVTINCQASQSIYNDNDLAWFQQKPGQPPKLLIYDASTLTSGVPSRFKGSGSGTQFTLTISDLDCDDAATYYCAARYSGNIYGFGGGTEVVVK
notes: Rabbit IgG from a rabbit hybridoma; also called h Id3 MoAb 3-3
As to B5, the A450 in experiment [2] came to 0.05 A450; in experiment [3], 0.048 A450; in experiment [4], 0.049 A450; in experiment [5], 0.048 A450; in experiment [8] it was 0.048 A450; in [9] it was 0.047 A450. Moreover, the A450 in experiment [10] and in experiment [11] was 0.05 A450 throughout.
